From paper PMC2288894

B1: p88 (novel 88-kD protein) (natural protein)
chain: HDGHDDDAIDIEDDLDDVIEEVEDSKSKSDASTPPSPKVTYKAPVPTGEVYFADSFDRGSLSGWILSKAKKDDTDDEIAKYDGKWEVDEMKETKLPGDKGLVLMSRAKHHAISAKLNKPFLFDTKPLIVQYEVNFQNGIECGGAYVKLLSKTAELSLDQFHDKTPYTIMFGPDKCGEDYKLHFIFRHKNPKTGVYEEKHAKRPDADLKTYFTDKKTHLYTLILNPDNSFEILVDQSVVNSGNLLNDMTPPVNPSREIEDPEDRKPEDWDERPKIADPDAVKPDDWDEDAPSKIPDEEATKPEGWLDDEPEYIPDPDAEKPEDWDEDMDGEWEAPQIANPKCESAPGCGVWQRPMIDNPNYKGKWKPPMIDNPNYQGIWKPRKIPNPDFFEDLEPFKMTPFSAIGLELWSMTSDIFFDNFIISGDRRVVDDWANDGWGLKKAADGAAEPGVVLQMLEAAEERPWLWVVYILTVALPVFLVILFCCSGKKQSNAMEYKKTDAPQPDVKDEEGKEEEKNKRDEEEEEEKLEEKQKSDAEEDGVTGSQDEEDSKPKAEEDEILNRSPRNRKPRRE

Key:
[1] = biological target: the class I heavy chains (H-2Kb, Db, Kd, and Ld; Fig. 9); assay: co-IP
[2] = biological target: the other three class I molecules (Bio-Gel A0.5m); assay: SEC
[3] = biological target: H-2Kd class I heavy chain (mouse (endogenous in MDAY-D2)); assay: cross-linking
Sequence of H-2Kd class I heavy chain (mouse (endogenous in MDAY-D2)) (P01902 22-368): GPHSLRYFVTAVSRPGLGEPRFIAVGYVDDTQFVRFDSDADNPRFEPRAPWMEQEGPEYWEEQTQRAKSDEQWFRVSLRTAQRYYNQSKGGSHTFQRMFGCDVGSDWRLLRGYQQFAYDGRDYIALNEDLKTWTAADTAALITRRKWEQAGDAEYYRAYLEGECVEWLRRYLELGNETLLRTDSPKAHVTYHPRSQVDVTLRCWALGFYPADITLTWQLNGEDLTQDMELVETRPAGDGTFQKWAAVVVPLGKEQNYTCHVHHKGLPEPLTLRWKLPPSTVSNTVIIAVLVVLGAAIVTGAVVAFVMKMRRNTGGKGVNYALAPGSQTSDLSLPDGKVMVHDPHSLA

[4] = biological target: H-2Ld class I heavy chain (mouse (endogenous in MDAY-D2)); assay: cross-linking
Sequence of H-2Ld class I heavy chain (mouse (endogenous in MDAY-D2)) (P01897 25-362): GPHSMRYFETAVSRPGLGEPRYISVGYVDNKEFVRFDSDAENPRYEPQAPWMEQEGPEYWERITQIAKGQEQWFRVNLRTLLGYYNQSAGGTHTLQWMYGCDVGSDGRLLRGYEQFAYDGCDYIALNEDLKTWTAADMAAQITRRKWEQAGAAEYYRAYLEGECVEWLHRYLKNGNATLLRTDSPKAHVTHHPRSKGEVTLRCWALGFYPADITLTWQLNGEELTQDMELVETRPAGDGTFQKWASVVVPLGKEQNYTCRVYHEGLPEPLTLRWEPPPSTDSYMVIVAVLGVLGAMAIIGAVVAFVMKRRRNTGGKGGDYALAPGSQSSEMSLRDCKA

[5] = biological target: H-2Db class I heavy chain (mouse (endogenous in EL4)); assay: cross-linking
Sequence of H-2Db class I heavy chain (mouse (endogenous in EL4)) (P01899 25-362): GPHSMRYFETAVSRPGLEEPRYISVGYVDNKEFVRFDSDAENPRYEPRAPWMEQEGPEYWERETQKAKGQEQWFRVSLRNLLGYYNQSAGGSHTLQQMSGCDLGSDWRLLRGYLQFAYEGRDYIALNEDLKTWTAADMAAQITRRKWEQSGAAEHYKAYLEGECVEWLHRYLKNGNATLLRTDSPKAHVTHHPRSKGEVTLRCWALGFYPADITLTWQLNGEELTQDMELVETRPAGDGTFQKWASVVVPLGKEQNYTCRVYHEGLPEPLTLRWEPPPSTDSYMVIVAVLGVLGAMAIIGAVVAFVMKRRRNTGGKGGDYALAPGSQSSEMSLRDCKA

[6] = biological target: H-2Kb class I heavy chain (mouse (endogenous in EL4)); assay: cross-linking
Sequence of H-2Kb class I heavy chain (mouse (endogenous in EL4)) (P01901 22-369): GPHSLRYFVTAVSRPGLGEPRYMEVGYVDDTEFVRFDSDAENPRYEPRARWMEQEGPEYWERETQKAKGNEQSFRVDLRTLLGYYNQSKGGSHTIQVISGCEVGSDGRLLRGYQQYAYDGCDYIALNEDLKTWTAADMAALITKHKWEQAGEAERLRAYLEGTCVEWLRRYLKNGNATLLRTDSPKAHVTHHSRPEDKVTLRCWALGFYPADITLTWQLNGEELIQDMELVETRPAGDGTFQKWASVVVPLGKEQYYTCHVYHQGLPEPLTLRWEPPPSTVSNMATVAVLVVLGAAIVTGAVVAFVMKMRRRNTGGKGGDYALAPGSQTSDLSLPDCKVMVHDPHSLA

Molecule | half-time of association post pulse (in cells) [1] | percent of heavy chains in the oligomeric species in the pulse-labeled sample [2] | half-time of disappearance of the complex after the pulse (in cells) [3] | half-time of disappearance of the complex after the pulse (in cells) [4] | half-time of disappearance of the complex after the pulse (in cells) [5] | half-time of p88 dissociation in the presence of BFA (in cells) [5] | half-time of disappearance of the complex after the pulse (in cells) [6] | half-time of p88 dissociation in the presence of BFA (in cells) [6]
beta 2-microglobulin (from UniProt P01887 21-119) (natural protein) | 2 to 5 min |  |  |  |  |  |  | 
B1 |  | 20 to 60% | 38 min | 45 min | 45 min | 42 min | 20 min | 23 min
